Test results reported in US20230167182A1 (BIOSION, published 2023).
Where a chain is given by its changes, count along the chain named.

B1: mouse anti-IL6R monoclonal antibody 1F7 (antibody, V domains shown)
VH: QVQLQQPGAELVKPGASVKLSCKASDYTFTSYWMHWVKQRPGQGLEWIGEINPSNGRTNYNEKFKNKATLTVDKSSSTAYVQLYSLTSEDSAVYYCARLSIHYVFDYWGQGTTLTVSS
VL: ELVLTQSPTTMAASPGEKITFTCSASSSISSNYLHWYQQKPGFSPKLLISGTSNLASGVPPRFSGSGSGTSYSLTIVTMEAEDVATYYCQQGSGIPFTFGSGTKLEIK
notes: Mouse hybridoma mAb
B2: Tocilizumab (antibody, human IgG1, kappa, V domains shown)
VH: QVQLQESGPGLVRPSQTLSLTCTVSGYSITSDHAWSWVRQPPGRGLEWIGYISYSGITTYNPSLKSRVTMLRDTSKNQFSLRLSSVTAADTAVYYCARSLARTTAMDYWGQGSLVTVSS
VL: DIQMTQSPSSLSASVGDRVTITCRASQDISSYLNWYQQKPGKAPKLLIYYTSRLHSGVPSRFSGSGSGTDFTFTISSLQPEDIATYYCQQGNTLPYTFGQGTKVEIKR
notes: In house made; also called benchmark; Actemra
B3: mouse anti-IL6R monoclonal antibody 1H7 (antibody, V domains shown)
VH: QVQLQQPGTELVKPGASVKLSCKASGYTFTNYWMHWVKQRPGQGLDWIGEINPTNGRTNYNENFKSKATLTVDKSSSTAYMQLSSLTSEDSAVYYCARLNTHYVFDSWGQGTTLTLSS
VL: B1 VL with L2I, M11L, A25V, G51R, N54T, P61A, V77G, I107L
notes: Mouse hybridoma mAb
B4: mouse anti-IL6R monoclonal antibody 1B5 (antibody, V domains shown)
VH: B3 VH with T9A, N31S, D46E, T54S, S107Y, L116V
VL: B1 VL with L2I, T10I, M11L, A25V, S50Y, G51R, P61A, V77G
notes: Mouse hybridoma mAb
B5: mouse anti-IL6R monoclonal antibody 3C2 (antibody, V domains shown)
VH: B3 VH with N31T, M34I, D46E, T54S, N63H, Y80S, E89A, L116V
VL: B1 VL with L2I, F21I, S50Y, G51R, P61T, R62H, V77G
notes: Mouse hybridoma mAb
B6: mouse anti-IL6R monoclonal antibody 1H9 (antibody, V domains shown)
VH: QVQLQQPGAELVKPGASVKLSCKASGYTFTSYWMHWVKLRPGQGLEWIGEINPTNGRTNYYEKFKNRATLTADKSSSTAYMQLSSLTFEDSAVYFCAKFHYSRWYFDVWGTGTTVTVSS
VL: DIVMTQSQKFMSTSVGDRVSITCKASQNVGTAVVWYQQKPGQSPKLLINPASNRYTGVPDRFTGSGSGTDFTLTISNMQSEDLADYFCQQYSSYPLTFGAGTKLELK
notes: Mouse hybridoma mAb
B7: mouse anti-IL6R monoclonal antibody 1G1 (antibody, V domains shown)
VH: B3 VH with T9A, N31S, Q39V, D46E, N63D, D73E, K74S, L83F, S107Y, L116V
VL: B1 VL with L2I, T10I, M11L, A25V, S50Y, G51R, P61A, V77G
notes: Mouse hybridoma mAb
B8: Chimeric 1H7 (antibody, human IgG1, kappa, V domains shown)
VH: B3 VH
VL: EIVLTQSPTTLAASPGEKITFTCSVSSSISSNYLHWYQQKPGFSPKLLISRTSTLASGVPARFSGSGSGTSYSLTIGTMEAEDVATYYCQQGSGIPFTFGSGTKLELKR
notes: Mouse variable regions on human IgG1 / human kappa constant regions; also called chimeric antibody 1H7
B9: humanized antibody hu1H7-V5 (antibody, human IgG1, kappa, V domains shown)
VH: QVQLVQSGAEVKKPGASVKVSCKASGYTFTNYWMHWVRQAPGQGLEWIGEINPTNGRTNYNENFKSRVTLTVDTSTSTVYMELSSLRSEDTAVYYCARLNTHYVFDSWGQGTLVTVSS
VL: EIVLTQSPGTLSLSPGERATLSCSVSSSISSNYLHWYQQKPGLSPRLLISRTSTLASGIPARFSGSGSGTEYTLTISRMQSEDFAVYYCQQGSGIPFTFGQGTKLEIKR
notes: Human IgG1 / kappa
B10: mouse anti-IL6R monoclonal antibody 1A3 (antibody, V domains shown)
VH: QVQLQQPGAELVKPGASVKLSCKASGYTFTSYWMHWVKQRPAQGLEWIGEINPSNGRTNFNEKFKTKATLTVDKSSNTAYMQLSSLTSEDSAVYSCLRLNTHYVFDYWGQGTTLTVSS
VL: B1 VL with L2I, F21I, G51R, P61T, V77G, E82G
notes: Mouse hybridoma mAb purified on Protein A

Target: T1, macaca IL6R-his protein (macaca mulatta)
T1 chain: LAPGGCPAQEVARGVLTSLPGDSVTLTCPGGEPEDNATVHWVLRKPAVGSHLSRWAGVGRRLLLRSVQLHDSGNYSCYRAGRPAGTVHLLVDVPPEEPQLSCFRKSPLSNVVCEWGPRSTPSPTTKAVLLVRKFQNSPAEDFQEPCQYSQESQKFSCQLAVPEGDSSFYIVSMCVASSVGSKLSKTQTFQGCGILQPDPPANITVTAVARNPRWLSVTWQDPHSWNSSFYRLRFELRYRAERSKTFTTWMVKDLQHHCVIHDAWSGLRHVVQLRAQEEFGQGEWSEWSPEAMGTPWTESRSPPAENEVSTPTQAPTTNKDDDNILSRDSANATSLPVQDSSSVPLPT
Assay: indirect ELISA on plate-coated macaca IL6R-his
Description: (§1) The anti-IL6R antibodies were tested for their cross-reaction with macaca IL6R. Briefly, 96-well micro plates were coated with 2 μg/ml macaca IL6R-his protein (in house made, amino acid sequence set forth in SEQ ID NO:45) in carbonate/bicarbonate buffer (pH 9.6), 100 μl/well, for 2 hours at 37° C. ELISA plates were washed once with wash buffer (PBS+0.05% v/v Tween-20, PBST) and then blocked with 200 μl/well blocking buffer (5% w/v non-fatty milk in PBST) for 2 hours at 37° C. Plates were washed 4 times and incubated with 100 μl/well serially diluted anti-IL6R antibodies of the disclosure or controls, starting at 66.67 nM with 5-fold serial dilution in PBST with 2.5% w/v non-fat milk, and incubated at 37° C. for 40 minutes. ELISA plates were washed 4 times again and incubated with 100 μl/well Peroxidase AffiniPure Goat Anti-Mouse IgG, Fcγ Fragment Specific (1:5000 dilution in PBST buffer, Jackson ImmunoResearch Laboratories, Inc., Cat #115-035-071) for 40 minutes at 37° C. After the final wash, plates were incubated with 100 μl/well TMB (InnoReagents). The reaction was stopped 3-10 minutes later at room temperature with 50 μl/well 1M H₂SO₄, and the absorbance of each well was read on a microplate reader using dual wavelength mode with 450 nm for TMB and 630 nm as the reference wavelength. Then the OD (450-630) values were plotted against antibody concentration. Data was analyzed using Graphpad Prism software and EC₅₀ values were reported.

Binder | EC50 [nM]
B1 | 0.14
B2 | 0.0571
B3 | 0.213
B4 | 0.205
B5 | 0.296

Target: T1, macaca IL6R-his protein
Assay: indirect ELISA on plate-coated macaca IL6R-his
Remark: another data set of the same source
Description: as §1

Binder | EC50 [nM]
B2 | 0.0575
B6 | 0.341
B7 | 0.501

These binders were tested against T2, human IL6R-Fc protein (human, biotin-labeled in the ELISAs (sites not given)) (assay: capture ELISA: antibody captured on anti-IgG F(ab')2 coated plate, then biotin-labeled human IL6R-Fc, streptavidin-HRP).
T2 construct: In house made; also called biotin-labeled human IL6R-Fc protein
T2 sequence (chain, as listed by the source limits assumed): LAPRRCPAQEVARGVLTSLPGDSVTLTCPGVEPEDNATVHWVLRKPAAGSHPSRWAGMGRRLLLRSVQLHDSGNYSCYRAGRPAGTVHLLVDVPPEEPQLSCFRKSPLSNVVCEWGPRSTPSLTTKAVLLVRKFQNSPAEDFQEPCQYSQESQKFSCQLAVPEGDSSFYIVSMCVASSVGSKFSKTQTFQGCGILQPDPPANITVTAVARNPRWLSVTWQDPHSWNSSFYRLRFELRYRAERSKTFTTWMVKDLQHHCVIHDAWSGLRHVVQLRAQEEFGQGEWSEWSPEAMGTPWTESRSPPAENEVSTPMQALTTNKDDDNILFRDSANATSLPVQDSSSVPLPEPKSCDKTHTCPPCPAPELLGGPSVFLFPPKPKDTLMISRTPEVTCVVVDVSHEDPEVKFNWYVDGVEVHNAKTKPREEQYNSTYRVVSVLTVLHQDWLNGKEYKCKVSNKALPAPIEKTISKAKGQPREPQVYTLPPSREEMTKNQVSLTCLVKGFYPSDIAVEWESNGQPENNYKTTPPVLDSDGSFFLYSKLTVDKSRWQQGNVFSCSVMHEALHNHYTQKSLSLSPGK
Description: For the capture ELISA, 96-well micro plates were coated with 2 μg/ml AffiniPure Goat Anti-Mouse IgG, F(ab′)₂ fragment specific (Jackson ImmunoResearch Laboratories, Inc., Cat #115-005-072) in PBS, 100 μl/well, and incubated for 2 hours at 37° C. Plates were washed once with wash buffer (PBS+0.05% v/v Tween-20, PBST) and then blocked with 200 μl/well blocking buffer (5% w/v non-fatty milk in PBST) overnight at 4° C. […] Plates containing captured anti-IL6R antibodies were incubated with biotin-labeled human IL6R-Fc protein (prepared in house, SEQ ID NO: 43, 39.5 ng/ml in 2.5% w/v non-fatty milk in PBST, 100 μl/well) for 40 minutes at 37° C., washed 4 times, and incubated with streptavidin conjugated HRP (1:10000 dilution in PBST, Jackson ImmunoResearch Laboratories, Inc., Cat #016-030-084, 100 μl/well) for 40 minutes at 37° C. After a final wash, plates were incubated with 100 μl/well ELISA substrate TMB (InnoReagents, Cat #TMB-S-002). The reaction was stopped 3-10 minutes later at room temperature with 50 μl/well 1M H₂SO₄, and the absorbance of each well was read on a microplate reader using dual wavelength mode at 450 nm for TMB and 630 nm as the reference wavelength. Then the OD (450-630) values were plotted against antibody concentration. Data was analyzed using Graphpad Prism software and EC₅₀ values were reported.
For the capture ELISA, 96-well micro plates were coated with 2 μg/ml goat anti-human IgG (AffiniPure Goat Anti-Human IgG, F(ab′)₂ fragment specific, Jackson ImmunoResearch Laboratories, Inc., Cat #109-005-097) instead of goat anti-mouse IgG F(ab′)₂ fragment, 100 μl/well.

Binder | EC50 [nM]
B2 | 0.504
B3 | 0.164
B8 | 0.201
B9 | 0.31

The binders below were run against T2, human IL6R-Fc protein (assay: ligand blocking ELISA: antibody pre-incubated with biotin-labeled human IL6R-Fc, added to plate-coated human IL6 (blocked ligand: human IL6)).

Binder | IC50 [nM]
B2 | 0.773
B3 | 0.231
B8 | 0.261
B4 | 0.281

What follows are binders tested against T2, human IL6R-Fc protein (assay: benchmark blocking ELISA: antibody pre-incubated with biotin-labeled human IL6R-Fc, added to plate-coated Tocilizumab (competitor: Tocilizumab)).
Description: (§2) ELISA plates were washed once with wash buffer (PBS+0.05% v/v Tween-20, PBST) and then blocked with 200 μl/well blocking buffer (5% w/v non-fatty milk in PBST) overnight at 4° C.
(§3) The next day, the anti-IL6R antibodies of the disclosure or controls were diluted with biotin labeled human IL6R-Fc protein (SEQ ID NO: 43, 13.6 ng/ml in 2.5% w/v non-fatty milk in PBST), starting at 100 nM with a 5-fold serial dilution, and incubated at room temperature for 40 minutes. […] After incubation at 37° C. for 40 minutes, plates were washed 4 times using wash buffer. Then streptavidin conjugated HRP was added, and the plates were incubated for 40 minutes at 37° C. The plates were finally washed using wash buffer, and added with TMB. The reaction was stopped using 1M […], and the absorbance was read on a microplate reader using dual wavelength mode with 450 nm for TMB and 630 nm as the reference wavelength. The OD (450-630) values were plotted against antibody concentration. Data was analyzed using Graphpad Prism software and IC₅₀ values were reported.

Binder | IC50 [nM]
B2 | 1.41
B4 | 0.162
B10 | 0.166

Target: T2, human IL6R-Fc protein
Assay: as above
Remark: another data set of the same source
Description: as §2, §3

Binder | IC50 [nM]
B2 | 0.862
B3 | 0.237
B8 | 0.203
B9 | 0.364
